Data: US20200399358A1 (Sanofi, published 2020)
Positions count from the first letter of the chain named.

Tests used:
[1] = target: T1, murine TGF-β2 (mouse, UniProt P27090 303-414); assay: cell-based or functional assay
T1 sequence (looked up): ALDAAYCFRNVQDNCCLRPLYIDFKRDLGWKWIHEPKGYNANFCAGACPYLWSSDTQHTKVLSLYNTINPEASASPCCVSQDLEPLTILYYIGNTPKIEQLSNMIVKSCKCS

[2] = target: T2, human TGF-β1 (human, UniProt P01137 279-390); assay: SPR (Biacore T200), Ab1 injected over immobilized TGF-β homodimer, 1:1 model
T2 construct: mature; Immobilized as homodimer in SPR; also called hTGF-β1
T2 sequence (P01137 279-390 limits assumed): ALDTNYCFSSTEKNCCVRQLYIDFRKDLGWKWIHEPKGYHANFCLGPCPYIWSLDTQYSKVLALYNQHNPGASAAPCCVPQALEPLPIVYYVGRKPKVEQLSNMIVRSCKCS
Experimental: (§1) The affinity of Ab1 for all human and murine TGF-β isoforms was determined by surface plasmon resonance on a Biacore T200 Biosensor instrument (GE Healthcare) using a dextran-coated carboxy-methylated (CM5) series S chip. Ab1 at a series of concentrations (1.11, 3.33, 10, and 30 nM) was injected onto immobilized recombinant TGF-β to measure the binding interaction in real time. The TGF-β homodimers were immobilized at a low density to reduce avidity effects. Injections were performed in triplicate and the binding assay was repeated three times. The data from the kinetic experiments were processed using the Biacore T200 Biaevaluation v2.0 software. Resulting sensorgrams were zeroed, aligned, double referenced, and cropped for curve fitting analysis using a 1:1 binding model to determine association rate constant (kₐ), dissociation rate constant (kd), and equilibrium dissociation constant (KD).

[3] = target: T3, murine TGF-β1 (mouse, UniProt P04202 279-390); assay: as above
T3 construct: mature; Bought from R&D Systems; also called Murine and Rat TGF-β1; murine/rat TGF-β1
T3 sequence (P04202 279-390 limits assumed): as the sequence (P01137 279-390 limits assumed) above, with A75S counted along it
Experimental: as §1

[4] = target: T4, human TGF-β2 (human, UniProt P61812 303-414); assay: as above
T4 construct: mature; Produced internally
T4 sequence (looked up): T1 sequence (looked up) with T59S, K60R, N94K
Experimental: as §1

[5] = target: T5, human TGF-β3 (human, UniProt P10600 301-412); assay: as above
T5 construct: mature; Produced internally; Human protein was measured; also called Human and Murine TGF-β3
T5 sequence (looked up): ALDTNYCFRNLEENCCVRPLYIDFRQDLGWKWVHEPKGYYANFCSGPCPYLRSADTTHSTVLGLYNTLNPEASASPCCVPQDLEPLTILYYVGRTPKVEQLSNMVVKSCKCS
Experimental: as §1

[6] = target: T1, murine TGF-β2; assay: as above
Experimental: as §1

[7] = target: T4, human TGF-β2; assay: cell-based or functional assay
[8] = target: T5, human TGF-β3; assay: cell-based or functional assay
[9] = target: T3, murine TGF-β1; assay: cell-based or functional assay
[10] = target: T2, human TGF-β1; assay: cell-based or functional assay
[11] = target: T2, human TGF-β1; assay: cell-based or functional assay; remark: listed apart in the source

B1: Ab1 (antibody, human IgG4 S228P, kappa)
heavy: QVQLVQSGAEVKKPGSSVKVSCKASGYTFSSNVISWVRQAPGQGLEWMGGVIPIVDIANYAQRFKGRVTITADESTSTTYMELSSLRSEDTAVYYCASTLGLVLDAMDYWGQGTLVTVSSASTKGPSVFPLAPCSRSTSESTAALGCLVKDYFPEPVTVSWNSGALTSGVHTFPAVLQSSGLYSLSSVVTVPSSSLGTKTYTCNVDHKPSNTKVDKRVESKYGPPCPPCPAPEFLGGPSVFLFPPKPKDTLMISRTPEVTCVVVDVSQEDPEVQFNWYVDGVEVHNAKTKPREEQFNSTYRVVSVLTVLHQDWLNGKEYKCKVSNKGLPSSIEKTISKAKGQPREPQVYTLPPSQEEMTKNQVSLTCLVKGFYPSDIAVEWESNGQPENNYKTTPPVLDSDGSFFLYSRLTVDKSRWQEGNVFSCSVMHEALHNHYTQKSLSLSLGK
light: ETVLTQSPGTLSLSPGERATLSCRASQSLGSSYLAWYQQKPGQAPRLLIYGASSRAPGIPDRFSGSGSGTDFTLTISRLEPEDFAVYYCQQYADSPITFGQGTRLEIKRTVAAPSVFIFPPSDEQLKSGTASVVCLLNNFYPREAKVQWKVDNALQSGNSQESVTEQDSKDSTYSLSSTLTLSKADYEKHKVYACEVTHQGLSSPVTKSFNRGEC
notes: Human IgG4 with proline at position 228 (EU numbering); also called anti-TGF-β antibody Ab1
- EC50 (read off the curve); neutralisation, Mv 1 Lu proliferation with 1 ng/ml TGF-β [1]: ~9 µg/mL
- Kd [2]: 1.48 nM
- koff [2]: 0.000343 s⁻¹
- kon [2]: 311000 M⁻¹ s⁻¹
- Kd [3]: 2.8 nM
- koff [3]: 0.000835 s⁻¹
- kon [3]: 298000 M⁻¹ s⁻¹
- Kd [4]: 3 nM
- koff [4]: 0.000823 s⁻¹
- kon [4]: 286000 M⁻¹ s⁻¹
- Kd [5]: 1.65 nM
- koff [5]: 0.000372 s⁻¹
- kon [5]: 223000 M⁻¹ s⁻¹
- Kd [6]: 1.88 nM
- koff [6]: 0.000645 s⁻¹
- kon [6]: 348000 M⁻¹ s⁻¹
- EC50 (read off the curve); neutralisation, Mv 1 Lu proliferation with 1 ng/ml TGF-β [7]: ~4 µg/mL
- EC50 (read off the curve); neutralisation, Mv 1 Lu proliferation with 1 ng/ml TGF-β [8]: ~2 µg/mL
- EC50 (read off the curve); neutralisation, Mv 1 Lu proliferation with 1 ng/ml TGF-β [9]: ~0.6 µg/mL
- fold change of luciferase activity against isotype control Ab (639440 RLU) [10]: 1.45 fold
- fold change of luciferase activity against no Ab control (638866 RLU) [10]: 1.45 fold

B2: fresolimumab (antibody, human IgG4, kappa)
heavy: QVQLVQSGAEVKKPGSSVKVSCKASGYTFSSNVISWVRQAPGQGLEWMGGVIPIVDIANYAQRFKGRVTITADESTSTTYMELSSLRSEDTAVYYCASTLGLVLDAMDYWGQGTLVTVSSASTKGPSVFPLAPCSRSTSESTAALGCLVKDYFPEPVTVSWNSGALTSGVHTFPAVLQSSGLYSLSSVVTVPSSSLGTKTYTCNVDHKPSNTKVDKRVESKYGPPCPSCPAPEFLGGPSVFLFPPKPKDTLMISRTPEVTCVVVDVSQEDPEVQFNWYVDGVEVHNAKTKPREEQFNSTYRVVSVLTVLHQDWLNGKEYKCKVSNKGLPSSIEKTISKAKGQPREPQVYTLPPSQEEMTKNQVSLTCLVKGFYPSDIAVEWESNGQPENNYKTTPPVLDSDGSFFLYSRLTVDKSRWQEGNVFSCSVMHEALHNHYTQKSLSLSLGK
light: B1 light
- EC50 (read off the curve); neutralisation, Mv 1 Lu proliferation with 1 ng/ml TGF-β [1]: ~9 µg/mL
- EC50 (read off the curve); neutralisation, Mv 1 Lu proliferation with 1 ng/ml TGF-β [7]: ~5 µg/mL
- EC50 (read off the curve); neutralisation, Mv 1 Lu proliferation with 1 ng/ml TGF-β [8]: ~2 µg/mL
- EC50 (read off the curve); neutralisation, Mv 1 Lu proliferation with 1 ng/ml TGF-β [9]: ~0.6 µg/mL

B3: 1D11 (antibody, mouse IgG1, kappa, V domains shown)
VH: HVQLQQSGPELVRPGASVKLSCKASGYIFITYWMNWVKQRPGQGLEWIGQIFPASGSTNYNEMFEGKATLTVDTSSSTAYMQLSSLTSEDSAVYYCARGDGNYALDAMDYWGQGTSVTVSS
VL: NIVLTQSPASLAVSLGQRATISCRASESVDSYGNSFMHWYQQKSGQPPKLLIYLASNLESGVPARFSGSGSRTDFTLTIDPVEADDAATYYCQQNNEDPLTFGAGTKLELKR
- EC50 (read off the curve); neutralisation, Mv 1 Lu proliferation with 1 ng/ml TGF-β [7]: ~6 µg/mL
- EC50 (read off the curve); neutralisation, Mv 1 Lu proliferation with 1 ng/ml TGF-β [8]: ~0.4 µg/mL
- EC50 (read off the curve); neutralisation, Mv 1 Lu proliferation with 1 ng/ml TGF-β [9]: ~4 µg/mL
- EC50 (read off the curve); neutralisation, Mv 1 Lu proliferation with 1 ng/ml TGF-β [11]: ~7 µg/mL
